The target of assay [1] is T1, FcγRIIa R (FcγRIIa, allotype with Arg at position 131), extracellular domain with C-terminal His tag (human, UniProt P12318 34-217).
T1 construct: extracellular domain; also called FcγRIIa R type; 2aR
T1 sequence (looked up): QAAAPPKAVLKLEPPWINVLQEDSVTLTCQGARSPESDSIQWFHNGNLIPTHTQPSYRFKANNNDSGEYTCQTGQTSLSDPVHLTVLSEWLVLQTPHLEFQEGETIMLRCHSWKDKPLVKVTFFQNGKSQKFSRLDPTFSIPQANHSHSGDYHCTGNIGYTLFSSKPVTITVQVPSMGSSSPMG
The assay is described as follows: SPR (Biacore), antibody captured on antigen peptide chip, FcγR as analyte; relative binding. On the technique in general: Surface plasmon resonance follows binding to a sensor surface in real time, without labels.

The target in assay [2] is T2, FcγRIIIa extracellular domain with C-terminal His tag (human, UniProt P08637 17-208).
T2 construct: extracellular domain; also called FcgRIIIa; 3a; not shown: His tag attached to the C terminus
T2 sequence (P08637 17-208): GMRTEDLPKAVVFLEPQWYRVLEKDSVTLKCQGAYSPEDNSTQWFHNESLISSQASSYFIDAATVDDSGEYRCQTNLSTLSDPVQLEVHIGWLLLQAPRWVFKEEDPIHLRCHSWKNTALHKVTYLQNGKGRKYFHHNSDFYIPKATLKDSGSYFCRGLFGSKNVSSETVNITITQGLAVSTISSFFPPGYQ
The assay is described as follows: SPR Biacore, captured antibody, FcγR analyte, relative binding. The method, then:
Analysis of interaction between objective antibody and the FcγR was carried out using Biacore T100 (GE Healthcare). HBS-EP+ (GE Healthcare) was used as the running buffer, and the measurement temperature was set to 25° C. Chips produced by immobilizing the antigen peptide by the amine coupling method to a Series S Sencor Chip CM5 (GE Healthcare), or alternatively, chips produced by allowing preliminarily biotinylated antigen peptides to interact with and immobilize onto a Series S Sensor Chip SA (certified) (GE Healthcare) were used. Antibodies of interest were captured onto an antigen peptide-immobilized chip, and allowed to interact to each FcγR diluted with running buffer. To regenerate and repeatedly use the chip, the antibodies captured on the chip were washed off by reacting 10 mM glycine-HCl, pH 1.5.

Drawing on patent US20150344570A1 (published 2015), this text covers He/Con_2aR and Ho/Con_3a for ten molecules.

B1: GpH7-A5/GpH7-B3 variant Y300_18N/GpL16-k0 (antibody, human IgG1, kappa)
heavy 1: not shown
heavy 2: not shown
light: DIVMTQSPLSLPVTPGEPASISCQASESLVHSNRNTYLHWYLQKPGQSPQLLIYKVSNRFSGVPDRFSGSGSGTDFTLKISRVEAEDVGVYYCSQNTHVPPTFGQGTKVEIERTVAAPSVFIFPPSDEQLKSGTASVVCLLNNFYPREAKVQWKVDNALQSGNSQESVTEQDSKDSTYSLSSTLTLSKADYEKHKVYACEVTHQGLSSPVTKSFNRGEC
notes: also called He Ab
With B1, in assay [1], the He/Con_2aR is 100 % of GpH7-A5/GpH7-B3/GpL16-k0 (=100).

B2: GpH7-A5/GpH7-B3 variant Y296_20W/GpL16-k0 (antibody, human IgG1, kappa)
heavy 1: not shown
heavy 2: not shown
light: DIVMTQSPLSLPVTPGEPASISCQASESLVHSNRNTYLHWYLQKPGQSPQLLIYKVSNRFSGVPDRFSGSGSGTDFTLKISRVEAEDVGVYYCSQNTHVPPTFGQGTKVEIERTVAAPSVFIFPPSDEQLKSGTASVVCLLNNFYPREAKVQWKVDNALQSGNSQESVTEQDSKDSTYSLSSTLTLSKADYEKHKVYACEVTHQGLSSPVTKSFNRGEC
notes: also called He Ab
For B2, the He/Con_2aR in assay [1] is 110 % of GpH7-A5/GpH7-B3/GpL16-k0 (=100).

B3: GpH7-B3 variant I332_01G/GpL16-k0 (antibody, human IgG1, kappa)
heavy: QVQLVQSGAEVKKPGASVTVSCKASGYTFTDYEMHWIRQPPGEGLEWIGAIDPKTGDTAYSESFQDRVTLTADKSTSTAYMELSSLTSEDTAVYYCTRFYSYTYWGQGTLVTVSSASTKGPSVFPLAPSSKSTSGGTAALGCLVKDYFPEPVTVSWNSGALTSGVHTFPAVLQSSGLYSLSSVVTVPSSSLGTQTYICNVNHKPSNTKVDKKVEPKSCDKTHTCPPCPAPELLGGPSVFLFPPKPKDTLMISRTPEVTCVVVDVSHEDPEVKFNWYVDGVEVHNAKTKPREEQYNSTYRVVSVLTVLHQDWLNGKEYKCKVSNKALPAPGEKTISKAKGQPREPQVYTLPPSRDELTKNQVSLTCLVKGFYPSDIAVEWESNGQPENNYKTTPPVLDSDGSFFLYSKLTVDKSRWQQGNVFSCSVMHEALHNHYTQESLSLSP
light: DIVMTQSPLSLPVTPGEPASISCQASESLVHSNRNTYLHWYLQKPGQSPQLLIYKVSNRFSGVPDRFSGSGSGTDFTLKISRVEAEDVGVYYCSQNTHVPPTFGQGTKVEIERTVAAPSVFIFPPSDEQLKSGTASVVCLLNNFYPREAKVQWKVDNALQSGNSQESVTEQDSKDSTYSLSSTLTLSKADYEKHKVYACEVTHQGLSSPVTKSFNRGEC
notes: also called Ho Ab I332_01G
As to B3, the Ho/Con_3a in assay [2] was 104 % of HoCon Ab GpH7-B3/GpL16-k0 (=100).

B4: GpH7-A5/GpH7-B3 variant Y296_18N/GpL16-k0 (antibody, human IgG1, kappa)
heavy 1: not shown
heavy 2: not shown
light: DIVMTQSPLSLPVTPGEPASISCQASESLVHSNRNTYLHWYLQKPGQSPQLLIYKVSNRFSGVPDRFSGSGSGTDFTLKISRVEAEDVGVYYCSQNTHVPPTFGQGTKVEIERTVAAPSVFIFPPSDEQLKSGTASVVCLLNNFYPREAKVQWKVDNALQSGNSQESVTEQDSKDSTYSLSSTLTLSKADYEKHKVYACEVTHQGLSSPVTKSFNRGEC
notes: also called He Ab
B4: in assay [1], the He/Con_2aR was 104 % of GpH7-A5/GpH7-B3/GpL16-k0 (=100).

B5: GpH7-A5/GpH7-B3 variant Y296_16H/GpL16-k0 (antibody, human IgG1, kappa)
heavy 1: not shown
heavy 2: not shown
light: DIVMTQSPLSLPVTPGEPASISCQASESLVHSNRNTYLHWYLQKPGQSPQLLIYKVSNRFSGVPDRFSGSGSGTDFTLKISRVEAEDVGVYYCSQNTHVPPTFGQGTKVEIERTVAAPSVFIFPPSDEQLKSGTASVVCLLNNFYPREAKVQWKVDNALQSGNSQESVTEQDSKDSTYSLSSTLTLSKADYEKHKVYACEVTHQGLSSPVTKSFNRGEC
notes: also called He Ab
Turning to B5, in assay [1], the He/Con_2aR was 105 % of GpH7-A5/GpH7-B3/GpL16-k0 (=100).

B6: GpH7-B3 variant E333_16H/GpL16-k0 (antibody, human IgG1, kappa)
heavy: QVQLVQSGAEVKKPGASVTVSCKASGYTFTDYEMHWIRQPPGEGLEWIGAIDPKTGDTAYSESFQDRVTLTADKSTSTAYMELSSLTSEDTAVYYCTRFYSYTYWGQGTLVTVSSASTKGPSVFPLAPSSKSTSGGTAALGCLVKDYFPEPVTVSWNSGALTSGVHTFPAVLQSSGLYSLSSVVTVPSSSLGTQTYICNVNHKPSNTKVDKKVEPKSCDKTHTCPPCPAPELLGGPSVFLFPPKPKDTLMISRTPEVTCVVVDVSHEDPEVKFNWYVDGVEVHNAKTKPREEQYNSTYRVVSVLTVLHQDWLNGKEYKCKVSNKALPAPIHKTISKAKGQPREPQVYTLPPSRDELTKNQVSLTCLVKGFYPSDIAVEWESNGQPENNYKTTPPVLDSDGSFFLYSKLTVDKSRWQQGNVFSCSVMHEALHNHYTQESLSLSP
light: DIVMTQSPLSLPVTPGEPASISCQASESLVHSNRNTYLHWYLQKPGQSPQLLIYKVSNRFSGVPDRFSGSGSGTDFTLKISRVEAEDVGVYYCSQNTHVPPTFGQGTKVEIERTVAAPSVFIFPPSDEQLKSGTASVVCLLNNFYPREAKVQWKVDNALQSGNSQESVTEQDSKDSTYSLSSTLTLSKADYEKHKVYACEVTHQGLSSPVTKSFNRGEC
notes: also called Ho Ab E333_16H
For B6, the Ho/Con_3a in assay [2] was 111 % of HoCon Ab GpH7-B3/GpL16-k0 (=100).

B7: GpH7-B3 variant H268_10E/GpL16-k0 (antibody, human IgG1, kappa)
heavy: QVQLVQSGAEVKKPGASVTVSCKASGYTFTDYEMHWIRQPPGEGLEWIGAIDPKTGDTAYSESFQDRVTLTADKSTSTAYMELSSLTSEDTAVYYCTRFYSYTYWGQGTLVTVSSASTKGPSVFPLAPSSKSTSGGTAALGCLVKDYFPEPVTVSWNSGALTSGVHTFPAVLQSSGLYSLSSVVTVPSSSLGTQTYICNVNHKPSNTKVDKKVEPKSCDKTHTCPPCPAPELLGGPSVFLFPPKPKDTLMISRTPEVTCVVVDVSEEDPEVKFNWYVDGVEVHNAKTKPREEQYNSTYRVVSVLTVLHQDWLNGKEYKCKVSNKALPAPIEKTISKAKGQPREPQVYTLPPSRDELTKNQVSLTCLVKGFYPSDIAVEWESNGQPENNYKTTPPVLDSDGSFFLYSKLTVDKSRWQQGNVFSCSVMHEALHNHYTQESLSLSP
light: DIVMTQSPLSLPVTPGEPASISCQASESLVHSNRNTYLHWYLQKPGQSPQLLIYKVSNRFSGVPDRFSGSGSGTDFTLKISRVEAEDVGVYYCSQNTHVPPTFGQGTKVEIERTVAAPSVFIFPPSDEQLKSGTASVVCLLNNFYPREAKVQWKVDNALQSGNSQESVTEQDSKDSTYSLSSTLTLSKADYEKHKVYACEVTHQGLSSPVTKSFNRGEC
notes: also called Ho Ab H268_10E
With B7, the Ho/Con_3a in assay [2] was 206 % of HoCon Ab GpH7-B3/GpL16-k0 (=100).

B8: GpH7-B3 variant I332_02A/GpL16-k0 (antibody, human IgG1, kappa)
heavy: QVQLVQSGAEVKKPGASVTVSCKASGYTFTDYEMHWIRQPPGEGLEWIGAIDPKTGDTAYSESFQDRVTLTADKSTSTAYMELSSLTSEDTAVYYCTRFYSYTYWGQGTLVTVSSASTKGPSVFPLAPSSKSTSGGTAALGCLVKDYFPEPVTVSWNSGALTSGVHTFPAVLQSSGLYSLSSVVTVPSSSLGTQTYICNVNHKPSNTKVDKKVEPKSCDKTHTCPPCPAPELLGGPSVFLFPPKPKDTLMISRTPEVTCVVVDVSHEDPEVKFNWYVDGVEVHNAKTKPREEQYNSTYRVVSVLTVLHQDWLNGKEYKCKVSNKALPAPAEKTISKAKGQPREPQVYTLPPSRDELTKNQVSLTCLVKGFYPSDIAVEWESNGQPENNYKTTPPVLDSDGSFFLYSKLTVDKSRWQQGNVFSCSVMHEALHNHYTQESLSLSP
light: DIVMTQSPLSLPVTPGEPASISCQASESLVHSNRNTYLHWYLQKPGQSPQLLIYKVSNRFSGVPDRFSGSGSGTDFTLKISRVEAEDVGVYYCSQNTHVPPTFGQGTKVEIERTVAAPSVFIFPPSDEQLKSGTASVVCLLNNFYPREAKVQWKVDNALQSGNSQESVTEQDSKDSTYSLSSTLTLSKADYEKHKVYACEVTHQGLSSPVTKSFNRGEC
notes: also called Ho Ab I332_02A
With B8, in assay [2], the Ho/Con_3a was 114 % of HoCon Ab GpH7-B3/GpL16-k0 (=100).

B9: GpH7-B3 variant I332_10E/GpL16-k0 (antibody, human IgG1, kappa)
heavy: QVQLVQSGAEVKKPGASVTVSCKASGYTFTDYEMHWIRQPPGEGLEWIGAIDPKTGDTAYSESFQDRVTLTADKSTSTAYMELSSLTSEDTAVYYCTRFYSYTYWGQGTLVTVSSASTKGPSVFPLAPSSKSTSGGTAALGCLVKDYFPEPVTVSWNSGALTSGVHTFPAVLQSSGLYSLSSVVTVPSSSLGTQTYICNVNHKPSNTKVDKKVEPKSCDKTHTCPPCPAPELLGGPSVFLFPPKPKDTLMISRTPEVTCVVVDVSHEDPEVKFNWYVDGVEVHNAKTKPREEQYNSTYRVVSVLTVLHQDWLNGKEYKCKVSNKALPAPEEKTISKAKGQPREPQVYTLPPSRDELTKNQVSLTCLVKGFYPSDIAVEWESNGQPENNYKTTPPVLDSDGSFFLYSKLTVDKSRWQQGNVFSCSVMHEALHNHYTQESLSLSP
light: DIVMTQSPLSLPVTPGEPASISCQASESLVHSNRNTYLHWYLQKPGQSPQLLIYKVSNRFSGVPDRFSGSGSGTDFTLKISRVEAEDVGVYYCSQNTHVPPTFGQGTKVEIERTVAAPSVFIFPPSDEQLKSGTASVVCLLNNFYPREAKVQWKVDNALQSGNSQESVTEQDSKDSTYSLSSTLTLSKADYEKHKVYACEVTHQGLSSPVTKSFNRGEC
notes: also called Ho Ab I332_10E
Take B9: in assay [2], the Ho/Con_3a was 278 % of HoCon Ab GpH7-B3/GpL16-k0 (=100).

B10: GpH7-B3 variant I332_13S/GpL16-k0 (antibody, human IgG1, kappa)
heavy: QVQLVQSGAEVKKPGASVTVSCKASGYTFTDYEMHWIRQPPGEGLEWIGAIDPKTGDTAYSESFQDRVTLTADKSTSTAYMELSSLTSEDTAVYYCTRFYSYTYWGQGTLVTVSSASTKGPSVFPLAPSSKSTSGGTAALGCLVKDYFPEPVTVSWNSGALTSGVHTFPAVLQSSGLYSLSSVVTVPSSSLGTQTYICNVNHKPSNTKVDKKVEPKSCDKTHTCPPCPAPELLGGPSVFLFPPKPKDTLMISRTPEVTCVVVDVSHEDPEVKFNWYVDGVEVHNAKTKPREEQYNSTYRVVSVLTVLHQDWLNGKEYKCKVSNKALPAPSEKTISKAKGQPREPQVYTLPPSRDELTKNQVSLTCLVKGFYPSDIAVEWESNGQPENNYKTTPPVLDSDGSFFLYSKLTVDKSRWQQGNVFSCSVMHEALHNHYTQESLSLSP
light: DIVMTQSPLSLPVTPGEPASISCQASESLVHSNRNTYLHWYLQKPGQSPQLLIYKVSNRFSGVPDRFSGSGSGTDFTLKISRVEAEDVGVYYCSQNTHVPPTFGQGTKVEIERTVAAPSVFIFPPSDEQLKSGTASVVCLLNNFYPREAKVQWKVDNALQSGNSQESVTEQDSKDSTYSLSSTLTLSKADYEKHKVYACEVTHQGLSSPVTKSFNRGEC
notes: also called Ho Ab I332_13S
Regarding B10, the Ho/Con_3a in assay [2] was 112 % of HoCon Ab GpH7-B3/GpL16-k0 (=100).
